The source of these data is article PMC5346439.

The target of experiment [1] is human MC5 (melanocortin receptor 5) (human) (UniProt P33032).
Experiment [2] has as its target mouse MC3 (melanocortin receptor 3) (mouse) (UniProt P33033).
Experiment [3] addresses human MC4 (melanocortin receptor 4) (human) (UniProt P32245).
The target in experiment [4] is human MC3 (melanocortin receptor 3) (human) (UniProt P41968).
Chain of UniProt P41968 (P41968 whole entry): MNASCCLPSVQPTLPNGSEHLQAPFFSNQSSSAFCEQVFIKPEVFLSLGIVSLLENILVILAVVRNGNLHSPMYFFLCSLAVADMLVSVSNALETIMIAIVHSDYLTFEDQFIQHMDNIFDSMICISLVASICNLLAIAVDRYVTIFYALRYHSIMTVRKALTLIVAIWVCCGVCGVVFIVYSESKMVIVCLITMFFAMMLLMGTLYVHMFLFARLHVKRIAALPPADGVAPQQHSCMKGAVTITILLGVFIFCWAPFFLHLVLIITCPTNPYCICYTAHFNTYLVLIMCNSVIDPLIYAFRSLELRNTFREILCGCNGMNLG

Chain of UniProt P33033 (P33033 whole entry): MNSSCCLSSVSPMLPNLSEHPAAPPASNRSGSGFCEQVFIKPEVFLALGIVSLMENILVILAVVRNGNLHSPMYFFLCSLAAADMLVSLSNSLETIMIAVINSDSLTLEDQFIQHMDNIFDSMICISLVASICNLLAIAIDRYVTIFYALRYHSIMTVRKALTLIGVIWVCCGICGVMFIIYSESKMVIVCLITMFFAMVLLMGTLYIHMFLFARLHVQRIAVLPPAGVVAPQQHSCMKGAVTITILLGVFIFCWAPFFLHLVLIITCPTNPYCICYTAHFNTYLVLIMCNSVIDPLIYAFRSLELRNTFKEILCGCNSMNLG
Chain of UniProt P33032 (P33032 whole entry): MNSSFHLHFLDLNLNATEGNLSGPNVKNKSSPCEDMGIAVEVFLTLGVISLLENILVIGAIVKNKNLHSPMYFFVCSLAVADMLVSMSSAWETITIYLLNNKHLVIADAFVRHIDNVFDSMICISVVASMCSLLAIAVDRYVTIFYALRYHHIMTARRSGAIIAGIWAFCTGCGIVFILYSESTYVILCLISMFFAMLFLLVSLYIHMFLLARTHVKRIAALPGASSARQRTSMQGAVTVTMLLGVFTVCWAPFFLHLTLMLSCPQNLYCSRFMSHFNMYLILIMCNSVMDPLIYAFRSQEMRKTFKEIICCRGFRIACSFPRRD
Chain of UniProt P32245 (P32245 whole entry): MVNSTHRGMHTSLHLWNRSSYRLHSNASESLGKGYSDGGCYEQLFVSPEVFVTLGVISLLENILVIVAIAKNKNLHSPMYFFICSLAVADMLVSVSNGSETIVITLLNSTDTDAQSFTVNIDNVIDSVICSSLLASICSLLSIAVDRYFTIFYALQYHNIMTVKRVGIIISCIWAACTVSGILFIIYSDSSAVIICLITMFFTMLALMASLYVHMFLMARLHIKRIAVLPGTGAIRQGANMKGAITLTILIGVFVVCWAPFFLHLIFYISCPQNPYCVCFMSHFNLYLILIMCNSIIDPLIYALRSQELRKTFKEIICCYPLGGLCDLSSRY

Lys-γ3MSH (peptide) came in with a pEC50 of cAMP production (HTRF cAMP assay) in receptor-transfected cells, with 0-30 μM fenoprofen; 6.13 at 0 μM, highest at 30 μM in experiment [1] of 6.8 pEC50. In addition, in experiment [2], the pEC50 of cAMP production (HTRF cAMP assay) in receptor-transfected cells, with 0-30 μM fenoprofen; 9.19 at 0 μM, highest at 10 μM worked out at 9.3 pEC50. Besides, in experiment [3], the pEC50 of cAMP production (HTRF cAMP assay) in receptor-transfected cells, with 0-30 μM fenoprofen; 7.33 at 0 μM, highest at 30 μM was 7.72 pEC50. Further, the pEC50 of cAMP production (HTRF cAMP assay) in receptor-transfected cells, with 0-30 μM fenoprofen; 8.80 at 0 μM, highest at 30 μM in experiment [4] was 9.35 pEC50.

In turn, NDP-αMSH (peptide) came in with a pEC50 of cAMP production (HTRF cAMP assay) in receptor-transfected cells, with 0-30 μM fenoprofen; 8.98 at 0 μM, highest at 10 μM in experiment [1] of 9.06 pEC50. In experiment [2], this substance gave a pEC50 of cAMP production (HTRF cAMP assay) in receptor-transfected cells, with 0-30 μM fenoprofen; 9.78 at 0 μM, highest at 3 μM of 9.86 pEC50. This substance yielded a pEC50 of cAMP production (HTRF cAMP assay) in receptor-transfected cells, with 0-30 μM fenoprofen; highest at 0 μM, 10.38 at 30 μM in experiment [3] of 10.5 pEC50. The substance also showed a pEC50 of cAMP production (HTRF cAMP assay) in receptor-transfected cells, with 0-30 μM fenoprofen; 9.40 at 0 μM, highest at 30 μM in experiment [4] of 9.66 pEC50.

In experiment [1], ACTH (peptide) yielded a pEC50 of cAMP production (HTRF cAMP assay) in receptor-transfected cells, with 0-30 μM fenoprofen; 6.78 at 0 μM, highest at 30 μM of 7.29 pEC50. In addition, the pEC50 of cAMP production (HTRF cAMP assay) in receptor-transfected cells, with 0-30 μM fenoprofen; 8.69 at 0 μM, highest at 30 μM in experiment [2] was found to be 9.03 pEC50. The substance also had a pEC50 of cAMP production (HTRF cAMP assay) in receptor-transfected cells, with 0-30 μM fenoprofen; 8.76 at 0 μM, highest at 30 μM in experiment [3] of 9.25 pEC50. Further, in experiment [4], the pEC50 of cAMP production (HTRF cAMP assay) in receptor-transfected cells, with 0-30 μM fenoprofen; 8.19 at 0 μM, highest at 30 μM came to 8.87 pEC50.

For the substance “αMSH (melanocyte-stimulating hormone) (peptide)”, in experiment [1], the pEC50 of cAMP production (HTRF cAMP assay) in receptor-transfected cells, with 0-30 μM fenoprofen; 6.64 at 0 μM, highest at 30 μM came out at 7.22 pEC50. Further, in experiment [2], the pEC50 of cAMP production (HTRF cAMP assay) in receptor-transfected cells, with 0-30 μM fenoprofen; 8.33 at 0 μM, highest at 30 μM was 8.86 pEC50. In experiment [3], the pEC50 of cAMP production (HTRF cAMP assay) in receptor-transfected cells, with 0-30 μM fenoprofen; 8.38 at 0 μM, highest at 30 μM amounted to 9.11 pEC50. Moreover, the pEC50 of cAMP production (HTRF cAMP assay) in receptor-transfected cells, with 0-30 μM fenoprofen; 7.58 at 0 μM, highest at 30 μM in experiment [4] is 8.3 pEC50.
